{"source": "patent US20170096478A1", "about": "“THERAPEUTIC AGENT FOR INFLAMMATORY DISEASE” (Josai University Corporation, priority 2012, published 2017)", "molecules": {"B1": {"name": "SSV mAb: monoclonal antibody (IgG1) produced by Mouse-Mouse hybridoma SSV-C 93-3 (NITE BP-972), raised against peptide … (SEQ ID NO:1)-KLH conjugate (antibody, V domains shown)", "VH": "EIQLQQSGAELVKPGASVKISCKASGYSFTGYNMNWVKQSHGKSLEWIGNINPYYGSTSYNQKFKGKATLTVDKSSSTAYMQLNSLTSEDSAVYYCARSPYYSNYWRYFDYWGQGTTLTVSS", "VL": "QIVLSQSPAILSASPGEKVTMTCRASSSVSYMHWYQQKPGSSPKPWIYATSNLASGVPARFSGSGSGTSYSLTISRVEAEDAATYYCQQWSSNPWTFGGGTKLEIK"}}, "key": {"[1]": {"system": "spleen lymphocytes from a naive DA rat (responsive cells) and from a LEW rat (stimulated cells)", "assay": "MLR tests (mixed lymphocyte reaction, BrdU incorporation)", "assay_type": "cell-based", "protocol": "Spleen lymphocytes from a naive DA rat (responsive cells) and spleen lymphocytes from a LEW rat treated with mitomycin-C (Kyowa Hakko Kogyo Co., Ltd.) (stimulated cells) were used. The responsive cells were adjusted to 5×10^5 cells/mL with 10% FCS-RPMI culture medium, and the stimulated cells were adjusted to 8×10^6 cells/mL with 10% FCS-RPMI culture medium. After plating the responsive cell suspension and the stimulated cell suspension in an amount of 100 μL to a 96 well round-bottom plate (Nunc Brand Products) respectively, the monoclonal antibody 16G9mAb of Reference Example 1 (0.1, 2, 4, or 6 μg/mL/well) or the monoclonal antibody SSVmAb of Example 1 (4 μg/mL/well) was added at the start of mixed culture, and cultured for 3.5 days or longer under the conditions of 37° C., 5% CO2/95% air. In addition, an immunosuppressive agent tacrolimus (FK506: Fujisawa Pharmaceutical Co., Ltd., 1 nM/well) was added as a positive control. Further, 10 μL bromo deoxyuridine (BrdU) was added 15 hours before the end of culture. Then the proliferation potential of the cells treated with the immunosuppressive agent was measured using BrdU labeling & detection kit III (Roche Diagnostics K.K.) using the amount of BrdU incorporated into cellular DNA as an indicator."}, "CD3 positive T cells": {"system": "CD3 positive T cells", "assay": "Reactivity of the monoclonal antibody with T cells by flow cytometry (FACS)", "assay_type": "cell-based, C57BL/6 mouse", "settings": "unstimulated T cells, 16G9 mAb compared with SSV mAb", "protocol": "Using the following approach, spleen was removed from a C57BL/6 mouse (5 weeks old, female, CHARLES RIVER LABORATORIES JAPAN, INC.) to prepare whole splenic cells.\nFirst, in a 5 ml culture dish (BD Bioscience FALCON 351007) into which 5 ml RPMI 1640 culture medium (Sigma-Aldrich, R-8758) was transferred, spleen was disentangled well with scissors for dissection and forceps to suspend the splenic cells, which were then transferred to a 15 ml centrifuge tube (BD Bioscience FALCON 352096). Then, the 5 ml dish was washed several times with phosphate-buffered saline (PBS, Invitrogen, 20012-027), and these were also added to the foregoing cell suspension and allowed to stand, and then the supernatant was collected in another 15 ml centrifuge tube. In addition, 5 ml RPMI 1640 culture medium was also added to the residual insoluble spleen tissue again and allowed to stand, and then only the supernatant was collected, which was combined with the above-mentioned cell suspension to perform centrifugation at 1,500 rpm for 5 min. To the collected cells, added was 2 ml lysis buffer (150 mM NH4Cl/15 mM NaHCO3/0.1 mM EDTA-Na2, pH 7.3) and hemolyzed by tapping, and then 10 ml PBS was added. After washed 3 times by centrifugation at 1,500 rpm for 5 min, whole splenic cells were obtained. […]\nThe reactivity of the above unstimulated with 16G9 mAb or SSV mAb was analyzed by flow cytometry (FACS). […]"}, "histone H4": {"target": "histone H4 (Homo sapiens, UniProt P62805)", "assay": "ELISA affinity for histone H4", "assay_type": "binding", "settings": "absorbance at 405 nm, 5 μg/mL antibody, compared with histone H1", "protocol": "The Affinities between histone H1 or core histone and SSVmAb were determined by ELISA.\nA 96 well microplate was coated with histone H1, H2A, H2B, H3 or H4. Each histone used was dissolved in 100 mM sodium carbonate buffer (pH 9.3). The plate was washed with PBS-tween 20 (0.05%), and blocked with 3% skim milk and 1% BSA for 1 hour. To each well, 5 μg/mL SSVmAb was added, and incubated for 1 hour. Bound SSVmAb was detected using peroxidase (HRP) conjugated anti mouse IgG1 Ab (SIGMA), and incubated for 1 hour. Bound SSVmAb was detected using the ABTS [2,2′-azino-bis(3-ethylbenzothiazoline-sulfonic acid)] substrate solution, and absorbance at 405 nm was measured using Multiskan Ascent (Thermo Fisher Scientific Inc., Waltham, Mass.).\nAfter the end of the tests, binding assays of SSV mAb with histone H1, histone H3 and histone H4 were carried out by ELISA in the same manner as Test Example 2."}, "[2]": {"system": "T cells from a Balb/c mouse", "assay": "MLR tests with T cells with or without mitochondria ATP synthase knock-down by siRNA", "assay_type": "cell-based"}}}
{"molecule": "B1", "values": [{"measurement": "absorbance which indicates the amount of incorporated BrdU", "setting": "[1]; 4 μg/mL/well, mean±S.E.", "result": "0.552±0.114"}, {"measurement": "absorbance (incorporated BrdU) compared with Reference Example 1 (16G9mAb) and tacrolimus (FK506)", "setting": "[1]; SSVmAb 4 μg/mL/well, FK506 1 nM/well", "result": "lower"}, {"measurement": "mean absorbance of Example 1 relative to that of Reference Example 1", "setting": "[1]; same amount added, 4 μg/mL/well", "result": "about 41%"}, {"measurement": "reactivity with CD3 positive T cells", "setting": "CD3 positive T cells", "result": "comparative reactivity"}, {"measurement": "affinity for histone H4 (ELISA)", "setting": "histone H4", "result": "binding capacity"}, {"measurement": "affinity for histone H4 (ELISA)", "setting": "histone H4; listed as SSVmAb", "result": "higher than the affinity for histone H1"}, {"measurement": "cell growth inhibition in MLR compared with Isotype IgG1", "setting": "[2]; ATP synthase knocked down", "result": "no significant difference"}, {"measurement": "cell growth inhibition in MLR compared with Isotype IgG1", "setting": "[2]; ATP synthase not knocked down", "result": "significantly inhibited cell growth"}]}
